From publication PMC3100323

Target: T1, rCmeR C69S/C166S C69S;C166S (Campylobacter jejuni NCTC 11168?) (UniProt Q0PBE2)
T1 sequence: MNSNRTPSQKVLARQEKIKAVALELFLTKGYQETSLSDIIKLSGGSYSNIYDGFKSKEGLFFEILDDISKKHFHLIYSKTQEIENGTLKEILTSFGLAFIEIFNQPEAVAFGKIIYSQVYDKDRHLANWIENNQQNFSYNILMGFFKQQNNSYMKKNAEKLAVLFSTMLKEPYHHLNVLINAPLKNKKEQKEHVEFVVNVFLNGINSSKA
Experiment: EMSA
Settings: 20 mM HEPES pH 7.6, 1 mM EDTA, 10 mM ([…], room temperature 30 min

Sequence: AGGCTTTGTATTAGCTCCTATGCTTATTTAAATCAAACCCTAGGTTTTTCTCTCCTAGGGTTAAAATTTTTTCATTAGTTTTTAAGTATATACTACGCTATAATATTCATTTTTAATTTTCTTTAAGAAAGGAATTTAATGAAGATAAAAGTTGGGTTGATTTTTTCAGGTATTGCTTG (double strand) [cj0089 promoter (lipoprotein operon), 179 bp]
- binding: binds more weakly
